The results in this text go back to patent publication US10059950B2, “Compositions comprising an internalizing nucleic acid molecule, and their methods of use” (B3 BIO, INC., priority 2012, dated 2018).

In data set [1] the test system is human prostate cancer cell line PC-3. The data set is described as follows: Flow cytometric-based screening assay for internalization in PC-3 cells. It counts as cell-based. As to the method:
In illustrating a screening process for internalization, from clones selected for further analysis from the selection process, a flow cytometric-based assay for binding and/or internalization was utilized. Typically, the assay was performed by incubating 200 nM of each clone with 5×10^5 target cells in 100 ul PBS containing 0.5% bovine serum albumin (BSA) in a 13 mm tube for 2 hours @ 37° C. A first portion of the cells was then treated with RNAse to remove any of the clone remaining bound to the surface of the cells, so as to allow detection and quantitation of internalized clone (i.e., measuring internalization). In parallel, a second portion of the cells was treated with PBS containing 0.5% BSA (lacking added RNase activity to enzymatically cleave […]), so as to allow detection and quantitation of clone remaining bound to the cell surface, as well as internalized clone (i.e., measuring binding and internalization). Following further washes with phosphate-buffered saline, the cells were fixed in 1% formaldehyde and then subjected to analysis on a flow cytometer using commercially available analysis software. In performing analyses by flow cytometry, several assay controls were used. As an assay control representing either no or background (e.g., non-specific) internalization, an RNA molecule resulting from a selection process for binding a molecule not detectably expressed on target cells was used. The assay control RNA molecule was further modified with Alexa 647, and then used for further characterization of clones from the selection process described herein. For ease of description and reference for this Example, this assay control RNA molecule is referred to herein as Negative Control 1 (see, e.g., Table 5). As an additional assay control that represents either no or background internalization, used was an RNA molecule from the starting library which was chosen from the library prior to beginning a selection method described herein, and that was further modified with Alexa 647. This assay control RNA molecule is referred to herein as Negative Control 2 (see, e.g., Tables 5, 7, and 8). Additionally, fluorescence of unstained cells was measured, as a control, to quantitate any background fluorescent properties of the cells themselves as encountered in analyses by flow cytometry (“Unstained”), as opposed to fluorescent signal mediated by the RNA molecules further modified to include Alexa 647. Shown in Table 5 are the results of analyses by flow cytometry in which measured and quantitated was the ability of clones, selected on the basis of sequence convergence, to internalize into target cells represented by human prostate cancer cell line PC-3. The units of fluorescence in Table 5 represent mean fluorescence (“Mean”). The fold increase (determined by dividing the mean fluorescence of a clone by the mean fluorescence of unstained cells) is an indicator of the ability of a clone, or a clone which has been further modified to include an effector moiety, to internalize into the target cells (Table 5; “Fold Increase”).
The truncations, illustrated in Table 6, were each further modified with a detectable moiety, Alexa 647, and analyzed by a flow cytometric-based screening assay for internalization using the methods outlined in Example 2, to determine minimal sequences that maintain the full ability to internalize into human prostate cancer cells. Shown in Table 7 are the results of analyses by flow cytometry in which measured and quantitated was the ability of each truncation to internalize into target cells represented by human prostate cancer cell line PC-3. The units of fluorescence in Table 7 represent mean fluorescence intensity (“Mean”). […]
(In general: In flow cytometry, cells or beads pass a laser one at a time.)

In data set [2] the test system is K562 human chronic myelogenous leukemia. The experiment in a line: Flow cytometric binding and internalization assay, K562. Format: cell-based. Particulars: K562, malignant. As to the method:
(§1) In illustrating a screening process for internalization, from clones selected for further analysis from the selection process, a flow cytometric-based assay for binding and/or internalization was utilized. Typically, the assay was performed by incubating 200 nM of each clone with 5×10^5 target cells in 100 ul PBS containing 0.5% bovine serum albumin (BSA) in a 13 mm tube for 2 hours @ 37° C. A first portion of the cells was then treated with RNAse to remove any of the clone remaining bound to the surface of the cells, so as to allow detection and quantitation of internalized clone (i.e., measuring internalization). In parallel, a second portion of the cells was treated with PBS containing 0.5% BSA (lacking added RNase activity to enzymatically cleave […]), so as to allow detection and quantitation of clone remaining bound to the cell surface, as well as internalized clone (i.e., measuring binding and internalization). […] Additionally, fluorescence of unstained cells was measured, as a control, to quantitate any background fluorescent properties of the cells themselves as encountered in analyses by flow cytometry (“Unstained”), as opposed to fluorescent signal mediated by the RNA molecules further modified to include Alexa 647. […] The units of fluorescence in Table 5 represent mean fluorescence (“Mean”). […]

The subject of data set [3] is A431 human epidermoid carcinoma. The data set is described as follows: Flow cytometric binding and internalization assay, A431. Format: cell-based. The note with it: A431, malignant. As to the method:
as §1

For data set [4], the system named is DU145 human prostate cancer, metastatic. The experiment in a line: Flow cytometric binding and internalization assay, DU145. Format: cell-based. The note with it: DU145, malignant. As to the method: as §1
The subject of data set [5] is 22Rv1 Human prostate xenografts in mice. The experiment in a line: Flow cytometric binding and internalization assay, 22Rv1. The note with it: 22Rv1, malignant. It counts as cell-based. As to the method:
as §1

Data set [6] has as its system LNCaP lymph node metastatic lesion of human prostate adenocarcinoma. The data set is described as follows: Flow cytometric binding and internalization assay, LNCaP. It counts as cell-based. Particulars: malignant. As for the experimental part: as §1
The test system of data set [7] is A549 human lung adenocarcinoma. The experiment in a line: Flow cytometric binding and internalization assay, A549. Format: cell-based. Particulars: A549, malignant. As to the method:
as §1

In data set [8] the test system is MCF7 human breast adenocarcinoma. The experiment in a line: Flow cytometric binding and internalization assay, MCF7. Format: cell-based. The note with it: MCF7, malignant. As for the experimental part: as §1
Data set [9] relates to T47D human ductal breast epithelial tumor cell line. The experiment in a line: Flow cytometric binding and internalization assay, T47D. Format: cell-based. The note with it: malignant. As to the method:
as §1

Data set [10] concerns SKBR3 human breast adenocarcinoma. The experiment in a line: Flow cytometric binding and internalization assay, SKBR3. Format: cell-based. Particulars: SKBR3, malignant. As for the experimental part: as §1
The subject of data set [11] is HCC1937 human, triple negative, primary breast carcinoma. The experiment in a line: Flow cytometric binding and internalization assay, HCC1937. It counts as cell-based. The note with it: HCC1937, malignant. As to the method: as §1
Data set [12] concerns HS578T Human, triple negative, highly metastatic breast carcinoma. The experiment in a line: Flow cytometric binding and internalization assay, HS578T. Format: cell-based. Particulars: malignant. As for the experimental part: as §1
The test system of data set [13] is HCC1143 human, triple negative, breast carcinoma. The experiment in a line: Flow cytometric binding and internalization assay, HCC1143. Particulars: HCC1143, malignant. Format: cell-based. As to the method: as §1
The subject of data set [14] is WIL-2 B lymphoblastoid cell line transformed with Epstein Barr virus. The experiment in a line: Flow cytometric binding and internalization assay, WIL-2. Format: cell-based, human. Particulars: WIL-2, transformed cells. As to the method: as §1
Data set [15] relates to PrEC human primary prostate epithelial cells. The data set is described as follows: Flow cytometric binding and internalization assay, PrEC. Format: cell-based. Particulars: nonmalignant. As for the experimental part: as §1
In data set [16] the test system is PBMC (unstim) human, unstimulated peripheral blood mononuclear cells. The experiment in a line: Flow cytometric binding and internalization assay, PBMC. It counts as cell-based. Particulars: nonmalignant. As to the method:
as §1

Data set [17] concerns human primary mammary epithelial cells. The experiment in a line: Flow cytometric binding and internalization assay, mammary epithelial cells. Format: cell-based. Particulars: nonmalignant. As for the experimental part:
as §1

Setting [18] is: Table 7, truncations modified with Alexa 647, PC-3.

In the oligonucleotide strings, read from the 5' end, every base follows the letter of its sugar. An asterisk marks phosphorothioate; unmarked linkages are phosphodiester. Other units and linkages are bracketed, terminal groups are in braces. A string of capitals states the bases alone. r = 2'-OH (RNA); f = 2'-fluoro

B1: GGGAGGACGAUGCGGUACUUUCGGGCUUUCGGCAACAUCAGCCCCUCAGGACGCAAUUUCUCCUACUGGGAUAGGUGGAUUAU (nucleic acid)
chain: rGrGrGrArGrGrAfCrGrAfUrGfCrGrGfUrAfCfUfUfUfCrGrGrGfCfUfUfUfCrGrGfCrArAfCrAfUfCrArGfCfCfCfCfUfCrArGrGrAfCrGfCrArAfUfUfUfCfUfCfCfUrAfCfUrGrGrGrAfUrArGrGfUrGrGrAfUfUrAfU
modifications: Alexa 647 label via hybridized DNA oligo, further chemistry not fully specified
notes: tested hybridized to Alexa647 DNA oligo
B1: the “internalization into cells (conclusion from Table 5)” value in data set [1] (PC-3, in words) is listed as “mediate internalization into cells”. Moreover, the “Fold Increase (mean fluorescence of clone / unstained cells)” value in [1] (Table 5, 200 nM Alexa 647-modified clone, 2 hours @ 37° C., PC-3) is 8.3. Also, the “Mean (mean fluorescence)” value in data set [1] (Table 5, 200 nM Alexa 647-modified clone, 2 hours @ 37° C., flow cytometry, PC-3) was determined as 665. The “Fold increase (mean fluorescence intensity / unstained cells)” value in data set [1] (setting [18]) was found to be 11.3. Besides, the “Mean (mean fluorescence intensity)” value in data set [1] (setting [18]) was found to be 907. Moreover, the Fold increase in [1] (Table 9, PC3, malignant) is recorded as 9.4; in [2] it was 23.2; in data set [3] it was 6.9; in [4], 6.1; in data set [5], 14.8; in data set [6] it was 6.1. Also, the Fold increase in data set [7] is recorded as 3.7; in [8], 31.0; in [9] it was 25.8; in data set [10], 14.3; in data set [11], 11.8; in [12], 9.8. The Fold increase in data set [13] came out at 2.1; in data set [14] it was 20.6; in [15], 2.6; in data set [16], 2.4; in data set [17], 5.7.
